{"source": "paper PMC7760338", "about": "“One Step Closer to Clinical Translation: Enhanced Tumor Targeting of [^99mTc]Tc-DB4 and [^111In]In-SG4 in Mice Treated with Entresto” (Pharmaceutics, 2020)", "key": {"in vivo": {"assay": "in vivo", "settings": "male, SCID, mouse, iv, 10 pmol, total radioactivity", "method": "(§1) Inocula of A431-CCK2R(+) and A431-CCK2R(−) cells (1.5 × 10^7 cells and 1.2 × 10^7 cells respectively, in 150 µL normal saline) were subcutaneously injected in the right and left flanks respectively, of 12 male SCID mice; in 5 more mice, a A431-CCK2R(+) cell suspension (1.5 × 10^7 cells in 150 µL normal saline) was subcutaneously injected instead on the neck of the animals. […] All animals were kept under aseptic conditions during this period and until biodistribution or imaging was conducted.\n(§2) For the biodistribution study, animals in groups of 4 received a 100 μL bolus of [^99mTc]Tc-DB4 via the tail vein (200 kBq, corresponding to 10 pmol total peptide in saline/EtOH 9/1 v/v—GRPR-tumor-bearing mice) or [^111In]In-SG4 (50 kBq, 10 pmol total peptide—twin A431-CCK2R(+)/A431-CCK2R(−) tumor-bearing mice) co-injected either with injection solution (100 μL; control) or with LBQ657 solution (100 µL injection solution containing 10 µg LBQ657). In additional sets of animals, mice received, by gavage, a single Entresto dose (12 mg/[…] per animal, prepared as described in Section 2.1.1) 30 min prior to injection of the respective radiotracer together with vehicle (100 μL; Entresto group), or with a [Tyr^4]BBN solution (100 μg in 100 μL vehicle; block group). Mice were euthanized at 4 h pi and dissected. Samples of blood, tumors and organs of interest were collected, weighed and measured for radioactivity in the γ-counter (an automated well-type gamma counter with a NaI(Tl) 3′’ crystal, Canberra Packard Auto-Gamma 5000 series instrument). Intestines and stomach were not emptied of their contents; exceptionally, in the case of [^111In]In-SG4-injected animals, stomachs were emptied of their contents. Data was calculated as percent injected activity per gram tissue (%IA/g) with the aid of standard solutions and represented as mean values ± standard deviation (SD), n = 4."}, "[1]": {"test_system": "SCID mice bearing double A431-CCK2R(+/−) xenografts (CCK2R)", "assay": "in vivo", "settings": "SCID mice with double A431-CCK2R(+/−) xenografts, 4 h pi, 50 kBq/10 pmol peptide iv, γ-counter, mean ± SD, n = 4; for Biodistribution, Stomach: stomach emptied of contents; for Biodistribution, Intestines: intestines not emptied", "method": "as §1, §2"}, "[2]": {"test_system": "A431-CCK2R(+) tumor-bearing mice", "settings": "4 h after injection"}, "[3]": {"settings": "Entresto: 12 mg/200 mL by gavage 30 min before, co-injected with vehicle"}, "[4]": {"settings": "LBQ657: co-injected with 10 µg LBQ657"}}, "note": "Non-standard residues stand in square brackets, D forms with d. Residues, ends and D or L forms follow the SMILES beside them. *: point of attachment. DOTA = O=C(O)CN1CCN(CC(=O)O)CCN(CC(=O)*)CCN(CC(=O)O)CC1; Nle = CCCC[C@H](N)C(=O)O", "data": [{"smiles": "CCCC[C@H](NC(=O)[C@H](Cc1c[nH]c2ccccc12)NC(=O)CNC(=O)[C@H](Cc1ccc(O)cc1)NC(=O)[C@H](C)NC(=O)[C@@H](CCC(=O)O)NC(=O)CN1CCN(CC(=O)O)CCN(CC(=O)O)CCN(CC(=O)O)CC1)C(=O)N[C@@H](CC(=O)O)C(=O)N[C@@H](Cc1ccccc1)C(N)=O", "note": "[[^111In]In-SG4, metal not drawn] ({DOTA}-[dE]AYGW[Nle]DF-NH2)", "values": [{"measurement": "tissue uptake at 4 h", "setting": "in vivo; A431-CCK2R(+) tumor", "value": "3.07 ± 0.87", "unit": "%ID/g"}, {"measurement": "tissue uptake at 4 h", "setting": "in vivo; A431-CCK2R(−) tumor", "value": "0.28 ± 0.21", "unit": "%ID/g"}, {"measurement": "tissue uptake at 4 h", "setting": "in vivo; blood", "value": "0.03 ± 0.02", "unit": "%ID/g"}, {"measurement": "tissue uptake at 4 h", "setting": "in vivo; femur", "value": "0.1 ± 0.03", "unit": "%ID/g"}, {"measurement": "tissue uptake at 4 h", "setting": "in vivo; heart", "value": "0.05 ± 0.02", "unit": "%ID/g"}, {"measurement": "tissue uptake at 4 h", "setting": "in vivo; kidneys", "value": "2.1 ± 0.49", "unit": "%ID/g"}, {"measurement": "tissue uptake at 4 h", "setting": "in vivo; liver", "value": "0.15 ± 0.02", "unit": "%ID/g"}, {"measurement": "tissue uptake at 4 h", "setting": "in vivo; lungs", "value": "0.06 ± 0.01", "unit": "%ID/g"}, {"measurement": "tissue uptake at 4 h", "setting": "in vivo; muscle", "value": "0.03 ± 0.02", "unit": "%ID/g"}, {"measurement": "tissue uptake at 4 h", "setting": "in vivo; pancreas", "value": "0.08 ± 0.09", "unit": "%ID/g"}, {"measurement": "tissue uptake at 4 h", "setting": "in vivo; spleen", "value": "0.11 ± 0.04", "unit": "%ID/g"}, {"measurement": "Biodistribution, Stomach", "setting": "[1]; Controls: co-injected with vehicle", "value": "1.29 ± 0.25", "unit": "%IA/g"}, {"measurement": "Biodistribution, Femur", "setting": "[1]; [3]", "value": "0.14 ± 0.03", "unit": "%IA/g"}, {"measurement": "Biodistribution, Kidneys", "setting": "[1]; [3]", "value": "2.40 ± 0.61", "unit": "%IA/g"}, {"measurement": "Biodistribution, Pancreas", "setting": "[1]; [3]", "value": "0.34 ± 0.14", "unit": "%IA/g"}, {"measurement": "Biodistribution, Spleen", "setting": "[1]; [3]", "value": "0.22 ± 0.05", "unit": "%IA/g"}, {"measurement": "Biodistribution, Tumor (+) (A431-CCK2R(+))", "setting": "[1]; [3]", "value": "9.61 ± 1.70", "unit": "%IA/g"}, {"measurement": "Biodistribution, Tumor (–) (A431-CCK2R(−))", "setting": "[1]; [3]", "value": "0.40 ± 0.23", "unit": "%IA/g"}, {"measurement": "Biodistribution, Intestines", "setting": "[1]; [3]", "value": "0.34 ± 0.07", "unit": "%IA/g"}, {"measurement": "Biodistribution, Stomach", "setting": "[1]; [3]", "value": "2.86 ± 0.53", "unit": "%IA/g"}, {"measurement": "Biodistribution, Intestines", "setting": "[1]; [4]", "value": "0.49 ± 0.12", "unit": "%IA/g"}, {"measurement": "Biodistribution, Stomach", "setting": "[1]; [4]", "value": "3.10 ± 0.41", "unit": "%IA/g"}, {"measurement": "change of tumor uptake on SPECT/CT, Entresto-treated vs controls", "setting": "[2]; Entresto orally 30 min in advance (3 mice) vs controls (2 mice), A431-CCK2R(+) tumors, 5 MBq iv", "value": "notable increase in the tumor uptake"}, {"measurement": "accumulation in A431-CCK2R(+) xenografts on SPECT/CT images", "setting": "[2]; SCID mice bearing A431-CCK2R(+) tumors, 5 MBq HPLC-isolated iv, five mice", "value": "Significant accumulation"}]}]}
